A short description of data set [1]: Solution clarity of m-cresol-preserved Val^8-GLP-1 solution with other surfactants, Example 4. Format: physicochemical. The following applies: m-cresol about 3 mg/ml; for clarity of Val^8-GLP-1 solution with added surfactant: 10 μl surfactant in 500 μL of 1 mg/ml peptide, ambient temperature about 3 hours; for solution appearance: without any additives. As to the method:
A formulation of the invention was prepared by dissolving Val^8-GLP-1(7-37)OH at 1 mg/ml in an aqueous solution containing 16 mg/ml glycerin and 10 mM sodium tribasic phosphate. The solution was adjusted to about pH 8.0 using 2N HCl.
(§1) The preservative m-cresol was prepared at a concentration of 100 mg/ml in absolute ethanol.
Various formulation excipients listed herein were added to 500 μL aliquots of the Val^8-GLP-1(7-37)OH solution in 3-ml glass vials. After stirring for about 45 minutes at ambient temperature, 15.8 μl of a 100 mg/ml m-cresol solution in absolute ethanol was added to give a m-cresol concentration of about 3 mg/ml.
Without any additives, the Val^8-GLP-1 solution becomes hazy at both ambient temperature and at 4° C.

Data set [2] is described as follows: Storage stability (solution clarity, HPLC purity) of m-cresol-preserved Val^8-GLP-1(7-37)OH formulations with DSS, Example 1. The data set is classed as physicochemical. The following applies: for time solution remained clear: 4° C.; for HPLC purity after storage: 6 weeks at 4° C. The protocol: A formulation of the invention was prepared by dissolving Val^8-GLP-1(7-37)OH at 1 mg/ml in an aqueous solution containing 16 mg/ml glycerin and 10 mM sodium tribasic phosphate. The solution was adjusted to about pH 8.1 using 1N HCl.
as §1
Sodium docusate (DSS) was prepared at a concentration of 20 mg/ml in water with gentle warming on a hot plate.
To each of 500 μL aliquots of the Val^8-GLP-1(7-37)OH solution in 3-ml glass vials were added 0, 3.3, 6.6 or 16.5 μL of the DSS solution followed by 15.8 μL of the preservative m-cresol solution. After gentle mixing of the components in the vials by hand swirling the pH of each clear solution was-adjusted to pH 7.8. Replicate samples were incubated at 4° C., ambient temperature, and 37° C. Within 4 hours at ambient temperature, the samples containing 0 or 3.3 μL of the DSS solution had become hazy due to peptide denaturation.
After incubation for 16 hours at 37° C., all four types of samples were clear. The solutions were then incubated at 4° C. Again, the solutions containing 0 or 3.3 μL of the DSS solutions became, and remained, hazy.
The solutions containing 6.6 μL or 16.5 μL of the DSS solution, which correspond to 2:1 and 10:1 molar ratios DSS to Val^8-GLP-1(7-37)OH, respectively, remained clear at 4° C. for at least 6 weeks.

Data set [3] can be described thus: Storage stability (solution clarity, HPLC purity) of preserved Val^8-GLP-1(7-37)OH formulation with DSS 2:1, Example 2. Format: physicochemical. The following applies: for solution appearance: DSS 2:1, m-cresol about 3.15 mg/ml; for HPLC purity after storage: DSS 2:1, m-cresol. The protocol:
A formulation of the invention was prepared by dissolving Val^8-GLP-1(7-37)OH at about 1.0 mg/ml in an aqueous solution containing 16 mg/ml glycerin and 10 mM sodium tribasic phosphate. The solution was adjusted to about pH 8.0 using 5N HCl. The solution was then filtered through 0.2μ and 0.02μ filters. The peptide concentration was quantified by ultraviolet (UV) analysis at 280 nm.
6.5 ml of the Val^8-GLP-1 solution was added to 1.62 mg of solid DSS, which had been dried from a 100 mg/ml solution in absolute ethanol, to give a 2:1 molar ratio of DSS to Val^8-GLP-1. After gently stirring 15 minutes at ambient temperature the solution was added to 20.5 mg of m-cresol, which had been dried from a 100 mg/ml solution in absolute ethanol, to give a m-cresol concentration of about 3.15 mg/ml. After stirring 15 minutes at ambient temperature, the solution was adjusted to about pH 7.7 and passed through a 0.2μ filter. Portions of this formulation were stored at 4° C. and at ambient temperature.
After 18 weeks, the formulations maintained at 4° C. and at ambient temperature were examined. Both solutions were clear.

Data set [4] has as its system beagle dogs clamped at an elevated glycemic level (200 mg/dl). Nature of the data set: Hyperglycemic clamp, glucose infusion rate after subcutaneous injection. The following applies: formulation containing DSS. The data set is classed as in vivo. As to the method:
A portion of the formulation from Example 2 was injected subcutaneously into beagle dogs that were clamped at an elevated glycemic level (200 mg/dl). 3 nmoles/kg of Val^8-GLP-1 were injected into each animal. Glucose infusion rates needed to maintain hyperglycemia were measured for 2.5 hours after the injections and compared to injections of a vehicle control solution.

Data set [5] can be described thus: Circular dichroism of Val^8-GLP-1 / GLP-1 secondary structure with bound DSS. The data set is classed as physicochemical. An excerpt:
A slightly larger form of Val^8-GLP-1 with DSS molecule(s) bound to it was observed on size-exclusion chromatography (SEC) and the altered secondary structure was noted by circular dichroism experiments (CD).
On the technique in general: Circular dichroism is widely used to follow secondary structure.

Consider Tween-80, for which, in data set [1], the “clarity of Val^8-GLP-1 solution with added surfactant” value was “preserved solution clarity”.

Regarding Tween-40, the “clarity of Val^8-GLP-1 solution with added surfactant” value in data set [1] was “preserved solution clarity”.

With Val^8-GLP-1(7-37)OH, the solution appearance entry in data set [2] (0 μL DSS solution, incubated at 4° C. after 16 hours at 37° C.) is “hazy”; in data set [2] (0 μL DSS solution, m-cresol, pH 7.8, within 4 hours at ambient temperature), “hazy”; in data set [2] (3.3 μL DSS solution, incubated at 4° C. after 16 hours at 37° C.), “hazy”; in data set [2] (3.3 μL DSS solution, m-cresol, pH 7.8, within 4 hours at ambient temperature), “hazy”; in data set [2] (all four sample types (0, 3.3, 6.6, 16.5 μL DSS solution), after incubation for 16 hours at 37° C.), “clear”; in data set [3] (pH about 7.7, 18 weeks at 4° C.), “clear”. The solution appearance entry was “clear” in data set [3] (pH about 7.7, 18 weeks at ambient temperature); “hazy” in data set [1] (4° C.); “hazy” in data set [1] (ambient temperature). The “time solution remained clear” value in data set [2] (6.6 μL DSS solution (2:1 molar ratio DSS to peptide)) and in data set [2] (16.5 μL DSS solution (10:1 molar ratio DSS to peptide)) was “at least 6 weeks” each time. In addition, the “HPLC purity after storage” value in data set [2] (6.6 μL DSS solution (2:1 molar ratio)) worked out at 98.3%; in data set [2] (16.5 μL DSS solution (10:1 molar ratio)), 97.2%; in data set [3] (18 weeks at 4° C.), 98.3%; in data set [3] (18 weeks at ambient temperature), 90.8%. Further, the “solution stability on addition of DSS” value in data set [2] (DSS 2:1 molar vs. peptide, isotonic, pH 7.8, m-cresol) is given as “dramatically improved”. Further, the “insulinotropic-like activity versus Val^8-GLP-1 in phosphate buffer solution (PBS formulation)” value in data set [4] was “comparable in potency”. The “secondary structure upon binding of DSS” value in data set [5] (circular dichroism) is given as “converted from mostly alpha-helix to mostly a beta sheet”.

Turning to “GLP-1(7-37) (HAEGTFTSDVSSYLEGEAAKEFIAWLVKGRG; listed as Homo sapiens)”, the “reversion to alpha-helix conformation” value in data set [5] (GLP-1-DSS mixture, 2-day dialysis, CD study) is recorded as “did not revert”.

(Values after patent publication US6358924B1, “GLP-1 formulations” (Eli Lilly and Company, priority 1997, dated 2002).)
